# From PMC9382030 (Current biology : CB, 2022)
# Biological target: T1, phosphatidylinositol 4-phosphate 5-kinase type-1 gamma (PIP5K1C) (human, UniProt O60331 1-668)
# T1 construct: PIP5K1C, human; also called PIPK1 gamma 90; source: Sf9, baculovirus, purified (amylose resin, HRV-3C cleavage, SEC); not shown: His6, N-terminal, cleaved; MBP, N-terminal, cleaved
# Test: pull-down; purified GST, GST-Arf6-T27N or GST-Arf6-Q67L bound to GSH agarose as bait; purified PIP5K1C 400 nM as prey, 1 h at 4 °C; 20 mM HEPES, 250 mM NaCl, 0.5 mM TCEP; SDS-PAGE and Coomassie staining
# Conditions: both partners purified
# T1 sequence (O60331 whole entry): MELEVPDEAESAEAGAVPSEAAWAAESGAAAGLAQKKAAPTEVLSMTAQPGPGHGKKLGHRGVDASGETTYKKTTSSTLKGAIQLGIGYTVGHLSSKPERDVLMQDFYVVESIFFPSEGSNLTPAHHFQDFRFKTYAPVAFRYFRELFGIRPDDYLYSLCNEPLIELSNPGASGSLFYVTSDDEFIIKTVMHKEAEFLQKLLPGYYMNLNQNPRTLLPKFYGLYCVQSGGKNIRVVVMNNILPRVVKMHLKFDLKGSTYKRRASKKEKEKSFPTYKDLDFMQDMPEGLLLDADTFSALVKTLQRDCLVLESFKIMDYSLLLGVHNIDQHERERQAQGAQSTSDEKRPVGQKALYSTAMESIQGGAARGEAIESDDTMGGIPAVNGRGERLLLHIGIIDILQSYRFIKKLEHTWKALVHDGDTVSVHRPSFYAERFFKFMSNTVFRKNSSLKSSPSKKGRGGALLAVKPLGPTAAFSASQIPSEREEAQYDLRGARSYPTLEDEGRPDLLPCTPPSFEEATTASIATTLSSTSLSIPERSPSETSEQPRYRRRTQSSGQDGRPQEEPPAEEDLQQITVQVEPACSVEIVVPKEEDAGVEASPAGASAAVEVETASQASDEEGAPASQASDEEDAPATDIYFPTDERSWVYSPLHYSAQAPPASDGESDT
binder,measurement,value
"GST-Arf6-Q67L (natural protein, human, UniProt P62330 1-175, looked up, Arf6, human; pGEX-6P-1 Arf6-Q67L; In the phosphoinositide conversion assay an N-terminal 6xHis form (pOCC3) was used instead; also called constitutively active Arf6; source: E. coli BL21, purified (GSH agarose, SEC); not shown: GST, N-terminal, kept) MGKVLSKIFGNKEMRILMLGLDAAGKTTILYKLKLGQSVTTIPTVGFNVETVTYKNVKFNVWDVGGLDKIRPLWRHYYTGTQGLIFVVDCADRDRIDEARQELHRIINDREMRDAIILIFANKQDLPDAMKPHEIQEKLGLTRIRDRNWYVQPSCATSGDGLYEGLTWLTSNYKS",binding result,binds
